Measurements as given in US20170362323A1 (Kyowa Kirin, published 2017).

Molecular target: T1, CD20 on CD20-positive human lymphoma cell lines Raji and ST-486 (human, UniProt P11836 1-297)
T1 construct: whole, on cells
T1 sequence (looked up): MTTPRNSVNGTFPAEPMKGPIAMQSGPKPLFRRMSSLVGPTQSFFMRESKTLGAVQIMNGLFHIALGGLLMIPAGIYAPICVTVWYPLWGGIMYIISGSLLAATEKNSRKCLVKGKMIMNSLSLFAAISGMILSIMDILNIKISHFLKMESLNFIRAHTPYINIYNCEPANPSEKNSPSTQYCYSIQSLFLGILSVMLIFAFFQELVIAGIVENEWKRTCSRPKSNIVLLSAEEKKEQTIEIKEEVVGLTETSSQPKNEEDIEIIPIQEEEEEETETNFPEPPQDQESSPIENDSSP
Test: flow cytometry competition on Raji cells, competitor GA101_Alx
From the text: CD20-positive human lymphoma cell line Raji (JCRB9012) and HER2-positive human breast cancer cell line SK-BR-3 (ATCC: HTB-30) were used to perform flow cytometry.
Further, hIgG1_Alx was used as a negative control. After washing with FACS buffer, a flow cytometer Cytomics FC 500 MPL (Beckman Coulter) was used for measurement.

B1: anti-CD20 IgG1 defucosylated antibody GA101/IgG1 DF (antibody, V domains shown)
VH: QVQLVQSGAEVKKPGSSVKVSCKASGYAFSYSWMNWVRQAPGQGLEWMGRIFPGDGDTDYNGKFKGRVTITADKSTSTAYMELSSLRSEDTAVYYCARNVFDGYWLVYWGQGTLVTVSS
VL: DIVMTQTPLSLPVTPGEPASISCRSSKSLLHSNGITYLYWYLQKPGQSPQLLIYQMSNLVSGVPDRFSGSGSGTDFTLKISRVEAEDVGVYYCAQNLELPYTFGGGTKVEIK
binding result: binds

B2: anti-CD20 IgG1 type defucosylated monovalent antibody GA101/mvG1-2 DF (antibody, V domains shown)
VH: B1 VH
VL: DIVMTQTPLSLPVTPGEPASISCRSSKSLLHSNGITYLYWYLQKPGQSPQLLIYQMSNLVSGVPDRFSGSGSGTDFTLKISRVEAEDVGVYYCAQNLELPYTFGGGTKVEIKR
notes: Same chains as GA101/mvG1-2 F, made in CHO/FUT8KO (no core fucose)
binding result: binds

B3: anti-CD20 IgG1 type monovalent antibody GA101/mvG1-2 F (antibody, V domains shown)
VH: B1 VH
VL: B2 VL
notes: Heterodimer of VH-CH and VL-CL-Fc
binding result: binds
